These are literature values, as cited in article PMC3530658.

For this data set, the target named is FEN-1 (Homo sapiens) (UniProt P39748).
UniProt P39748, sequence (P39748 whole entry): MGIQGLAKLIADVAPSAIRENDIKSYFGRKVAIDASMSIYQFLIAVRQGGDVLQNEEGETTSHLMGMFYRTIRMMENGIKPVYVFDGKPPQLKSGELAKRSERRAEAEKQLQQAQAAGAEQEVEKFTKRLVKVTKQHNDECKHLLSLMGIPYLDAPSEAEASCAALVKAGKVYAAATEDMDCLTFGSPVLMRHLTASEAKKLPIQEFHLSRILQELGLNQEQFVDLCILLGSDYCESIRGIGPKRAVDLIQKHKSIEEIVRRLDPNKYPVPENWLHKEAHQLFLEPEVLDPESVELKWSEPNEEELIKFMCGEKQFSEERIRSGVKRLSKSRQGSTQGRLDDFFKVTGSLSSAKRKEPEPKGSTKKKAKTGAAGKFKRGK

Broadly, the Kd is the concentration at which binding is half-saturated. As for NEIL1 CTD (from UniProt Q96FI4), the Kd was 200 nM.
